The values that follow are results of earlier work, collected in article PMC5689459.

In the data set the target is delta-opioid receptor (Homo sapiens) (UniProt P41143). As to the kind of experiment: radioligand.

Chain of Morphiceptin (P02666 whole entry, looked up): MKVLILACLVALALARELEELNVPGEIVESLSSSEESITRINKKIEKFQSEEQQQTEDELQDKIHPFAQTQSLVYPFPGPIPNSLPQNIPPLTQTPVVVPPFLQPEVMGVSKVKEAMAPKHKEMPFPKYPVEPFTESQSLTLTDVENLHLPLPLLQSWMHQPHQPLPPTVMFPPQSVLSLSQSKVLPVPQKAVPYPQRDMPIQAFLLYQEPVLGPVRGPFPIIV

For Morphiceptin (from UniProt P02666), the Ki was over 10 µM.
